Source: publication PMC4574919, “Structural and Biochemical Analysis of a Single Amino-Acid Mutant of WzzBSF That Alters Lipopolysaccharide O-Antigen Chain Length in Shigella flexneri” (PLoS ONE, 2015)

What was measured:
[1] = target: the molecule itself; assay: SDS-PAGE and immunoblot of non-cross-linked cells; whole S. flexneri cells incubated without formaldehyde (control), samples heated at 60°C for 5 min, 12% SDS-PAGE, immunoblot with anti-WzzBSF
[2] = target: the molecule itself; assay: crystal structure; hanging drop, 18°C, 0.1 M citric-acid/HEPES/CHES pH 7.3, 18% PEG 400, 18% PEG 8000, 0.1 M MgCl2; protein 12-13 mg/ml; open trimer in the crystal

Row | Protein | stoichiometry N [1] | stoichiometry N [2]
1 | full-length WzzBSF (natural protein, WzzBSF of Shigella flexneri, wzzSF open reading frame in pRMCD30; ~36 kDa; also called wild-type WzzBSF; source: S. flexneri RMA4053 (wzz::kan), from plasmid pRMCD30 (pQE30-based), IPTG-induced, in whole cells) MRVENNNVSGQNHDPEQIDLIDLLVQLWRGKMTIIISVIVAIALAIGYLAVAKEKWTSTAIITQPDVGQIAGYNNAMNVIYGQAAPKVSDLQETLIGRFSSAFSALAETLDNQEEPEKLTIEPSVKNQQLPLTVSYVGQTAEGAQMKLAQYIQQVDDKVNQELEKDLKDNIALGRKNLQDSLRTQEVVAQEQKDLRIRQIQEALQYANQAQVTKPQVQQTEDVTQDTLFLLGSEALESMIKHEATRPLVFSPNYYQTRQNLLDIEKLKFDDLDIHAYRYVMKPTLPIRRDSPKKAITLILAVLLGGMVGAGIVLGRNALRNYNAK | 2 | –
2 | periplasmic domain of WzzBSF (residues 54-295) (domain or fragment, WzzBSF (polysaccharide co-polymerase, O-antigen chain length regulator) of Shigella flexneri, periplasmic domain, residues 54-295; Cloned in pMCSG7 by ligation-independent cloning; also called wild-type WzzBSF periplasmic domain; source: E. coli BL21(DE3), autoinduction, purified (HisTrap, TEV cleavage, reverse HisTrap, Superdex 200 SEC); not shown: His6, N-terminal, cleaved) EKWTSTAIITQPDVGQIAGYNNAMNVIYGQAAPKVSDLQETLIGRFSSAFSALAETLDNQEEPEKLTIEPSVKNQQLPLTVSYVGQTAEGAQMKLAQYIQQVDDKVNQELEKDLKDNIALGRKNLQDSLRTQEVVAQEQKDLRIRQIQEALQYANQAQVTKPQVQQTEDVTQDTLFLLGSEALESMIKHEATRPLVFSPNYYQTRQNLLDIEKLKFDDLDIHAYRYVMKPTLPIRRDSPKKA | – | 3
3 | periplasmic domain of WzzBSF A107P (residues 54-295) (domain or fragment, WzzBSF of Shigella flexneri, periplasmic domain, residues 54-295, with the mutation A107P found by random mutagenesis; Same construct limits as m1 ('the equivalent construct containing the A107P mutation'); also called A107P mutant; source: E. coli BL21(DE3), autoinduction, purified (HisTrap, TEV cleavage, reverse HisTrap, Superdex 200 SEC); not shown: His6, N-terminal, cleaved) EKWTSTAIITQPDVGQIAGYNNAMNVIYGQAAPKVSDLQETLIGRFSSAFSALPETLDNQEEPEKLTIEPSVKNQQLPLTVSYVGQTAEGAQMKLAQYIQQVDDKVNQELEKDLKDNIALGRKNLQDSLRTQEVVAQEQKDLRIRQIQEALQYANQAQVTKPQVQQTEDVTQDTLFLLGSEALESMIKHEATRPLVFSPNYYQTRQNLLDIEKLKFDDLDIHAYRYVMKPTLPIRRDSPKKA | – | 3
